First the molecules themselves.
T1: IKKα-T7 (murine, UniProt Q60680 1-745)
T1 construct: also called T7-IKKα; murine IKKα/CHUK
T1 sequence (looked up): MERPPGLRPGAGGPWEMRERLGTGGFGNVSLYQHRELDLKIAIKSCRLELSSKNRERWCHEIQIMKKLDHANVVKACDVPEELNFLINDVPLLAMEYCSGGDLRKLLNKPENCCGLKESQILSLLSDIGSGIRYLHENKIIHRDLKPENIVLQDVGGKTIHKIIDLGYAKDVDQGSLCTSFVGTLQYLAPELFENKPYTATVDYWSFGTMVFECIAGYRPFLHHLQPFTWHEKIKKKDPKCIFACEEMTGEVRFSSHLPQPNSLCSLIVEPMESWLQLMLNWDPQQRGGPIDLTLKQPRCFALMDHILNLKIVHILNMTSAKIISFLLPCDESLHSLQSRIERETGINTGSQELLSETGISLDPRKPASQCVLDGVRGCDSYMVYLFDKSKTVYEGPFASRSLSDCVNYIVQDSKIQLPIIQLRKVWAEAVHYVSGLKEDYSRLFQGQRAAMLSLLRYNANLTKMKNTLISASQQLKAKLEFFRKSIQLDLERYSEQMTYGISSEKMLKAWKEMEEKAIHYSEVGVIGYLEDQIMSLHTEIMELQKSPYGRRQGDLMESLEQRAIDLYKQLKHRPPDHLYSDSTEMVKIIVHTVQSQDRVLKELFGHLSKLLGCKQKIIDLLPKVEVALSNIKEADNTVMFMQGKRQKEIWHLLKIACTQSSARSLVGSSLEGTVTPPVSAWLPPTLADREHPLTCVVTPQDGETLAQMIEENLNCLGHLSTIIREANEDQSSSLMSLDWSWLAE

B1: Myc-N1-578 (other, not shown: small tags and cut ends)
chain: MAVMEMACPGAPGSAVGQQKELPKPKEKTPPLGKKQSSVYKLEAVEKSPVFCGKWEILNDVITKGTAKEGSEAGPAAISIIAQAECENSQEFSPTFSERIFIAGSKQYSQSESLDQIPNNVAHATEGKMARVCWKGKRRSKARKKRKKKSSKSLAHAGVALAKPLPRTPEQESCTIPVQEDESPLGAPYVRNTPQFTKPLKEPGLGQLCFKQLGEGLRPALPRSELHKLISPLQCLNHVWKLHHPQDGGPLPLPTHPFPYSRLPHPFPFHPLQPWKPHPLESFLGKLACVDSQKPLPDPHLSKLACVDSPKPLPGPHLEPSCLSRGAHEKFSVEEYLVHALQGSVSSSQAHSLTSLAKTWAARGSRSREPSPKTEDNEGVLLTEKLKPVDYEYREEVHWATHQLRLGRGSFGEVHRMEDKQTGFQCAVKKVRLEVFRAEELMACAGLTSPRIVPLYGAVREGPWVNIFMELLEGGSLGQLVKEQGCLPEDRALYYLGQALEGLEYLHSRRILHGDVKADNVLLSSDGSHAALCDFGHAVCLQPDGLGKSLLTGDYIPGTETHMAPEVVLGRSCDAKVD
notes: C-terminal deletion mutant of NIK
B2: Myc-N1-624 (other, not shown: small tags and cut ends)
chain: MAVMEMACPGAPGSAVGQQKELPKPKEKTPPLGKKQSSVYKLEAVEKSPVFCGKWEILNDVITKGTAKEGSEAGPAAISIIAQAECENSQEFSPTFSERIFIAGSKQYSQSESLDQIPNNVAHATEGKMARVCWKGKRRSKARKKRKKKSSKSLAHAGVALAKPLPRTPEQESCTIPVQEDESPLGAPYVRNTPQFTKPLKEPGLGQLCFKQLGEGLRPALPRSELHKLISPLQCLNHVWKLHHPQDGGPLPLPTHPFPYSRLPHPFPFHPLQPWKPHPLESFLGKLACVDSQKPLPDPHLSKLACVDSPKPLPGPHLEPSCLSRGAHEKFSVEEYLVHALQGSVSSSQAHSLTSLAKTWAARGSRSREPSPKTEDNEGVLLTEKLKPVDYEYREEVHWATHQLRLGRGSFGEVHRMEDKQTGFQCAVKKVRLEVFRAEELMACAGLTSPRIVPLYGAVREGPWVNIFMELLEGGSLGQLVKEQGCLPEDRALYYLGQALEGLEYLHSRRILHGDVKADNVLLSSDGSHAALCDFGHAVCLQPDGLGKSLLTGDYIPGTETHMAPEVVLGRSCDAKVDVWSSCCMMLHMLNGCHPWTQFFRGPLCLKIASEPPPVREIPPSCAP
notes: as for B1
B3: Myc-N1-366 (other, not shown: small tags and cut ends)
chain: MAVMEMACPGAPGSAVGQQKELPKPKEKTPPLGKKQSSVYKLEAVEKSPVFCGKWEILNDVITKGTAKEGSEAGPAAISIIAQAECENSQEFSPTFSERIFIAGSKQYSQSESLDQIPNNVAHATEGKMARVCWKGKRRSKARKKRKKKSSKSLAHAGVALAKPLPRTPEQESCTIPVQEDESPLGAPYVRNTPQFTKPLKEPGLGQLCFKQLGEGLRPALPRSELHKLISPLQCLNHVWKLHHPQDGGPLPLPTHPFPYSRLPHPFPFHPLQPWKPHPLESFLGKLACVDSQKPLPDPHLSKLACVDSPKPLPGPHLEPSCLSRGAHEKFSVEEYLVHALQGSVSSSQAHSLTSLAKTWAARGSR
notes: as for B1
B4: Myc-N1-220 (other, not shown: small tags and cut ends)
chain: MAVMEMACPGAPGSAVGQQKELPKPKEKTPPLGKKQSSVYKLEAVEKSPVFCGKWEILNDVITKGTAKEGSEAGPAAISIIAQAECENSQEFSPTFSERIFIAGSKQYSQSESLDQIPNNVAHATEGKMARVCWKGKRRSKARKKRKKKSSKSLAHAGVALAKPLPRTPEQESCTIPVQEDESPLGAPYVRNTPQFTKPLKEPGLGQLCFKQLGEGLRPA
notes: Treated as one construct; also called Myc-N1-200; N1-200
B5: Myc-N570-947 (other, not shown: small tags and cut ends)
chain: GRSCDAKVDVWSSCCMMLHMLNGCHPWTQFFRGPLCLKIASEPPPVREIPPSCAPLTAQAIQEGLRKEPIHRVSAAELGGKVNRALQQVGGLKSPWRGEYKEPRHPPPNQANYHQTLHAQPRELSPRAPGPRPAEETTGRAPKLQPPLPPEPPEPNKSPPLTLSKEESGMWEPLPLSSLEPAPARNPSSPERKATVPEQELQQLEIELFLNSLSQPFSLEEQEQILSCLSIDSLSLSDDSEKNPSKASQSSRDTLSSGVHSWSSQAEARSSSWNMVLARGRPTDTPSYFNGVKVQIQSLNGEHLHIREFHRVKVGDIATGISSQIPAAAFSLVTKDGQPVRYDMEVPDSGIDLQCTLAPDGSFAWSWRVKHGQLENRP

The target of the first assay is T1, IKKα-T7. As to the kind of experiment: co-immunoprecipitation from 293 lysates, anti-T7 IP, anti-Myc blot.
On to B1, for which the binding result is recorded as “no binding”.
Regarding B2, the binding result is reported as “no binding”.
As for B3, the binding result is “no binding”.
Still for that read-out and setting: the entry for B4 is “no binding”.

In a further assay the target is T2, NIK-T7 (Homo sapiens (Human), UniProt Q99558 1-947).
T2 construct: Full-length NIK in pEV3S with C-terminal T7 tag; also called pEV-NIK-T7
The description is as above.
On to B5, for which the binding result is listed as “no binding”.
The same measure, in the same setting: as for B4, the entry is “no binding”.

Values taken from US6645728 (University of California, dated 2003).
